According to the supplement of paper PMC6755084:

B1: minF1; a variant is named by its letters at N, in order (parent)
chain: GAGACCGCAACTGAAAAGTTGTTNNNNAANNNNGGNTNNATTTCTGCACGTAGAAGCAAAAGGC

Variants of: B1
Assay: fraction ligated after 30 min (ligated reads / total reads); higher = more ligase activity
Details: with F1*subA RNA substrate (template-directed ligation), 42 °C
Procedure: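 Chip-synthesised pool of minF1 ligase ribozyme variants (single and double substitutions, single to quadruple deletions, bulge and P2 designed variants) was transcribed with T7 and reacted as a pool with excess substrate F1*subA for 30 min at 42 C in 50 mM EPPS pH 8.5, 25 mM MgCl2. Ligated and unligated RNAs were separated by PAGE, barcoded by RT and deep sequenced; fraction ligated = ligated reads / total reads, relative activity = FL / FL of wild-type minF1 (0.76); sequencing FL correlated with PAGE (R2 = 0.98). Sequences are the DNA template of the ribozyme.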

In order of falling fraction ligated:
1. GAGACCGCAACTGAAAAGTTGTATCAGAATGGATGGTTGATTTCTGCACGTAGAAGCAAAAGGC [TCAGTGGAGTG T23A G34T]  0.0406
2. GAGACCGCAACTGAAAAGTTGTTACAGAATGGATGGTTGATTTCTGCACGTAGAAGCAAAAGGC [ACAGTGGAGTG G34T]  0.0352
3. GAGACCGCAACTGAAAAGTTGTTTCAGAATGGATGGTTGATTTCTGCACGTAGAAGCAAAAGGC [TCAGTGGAGTG G34T]  0.0219
4. GAGACCGCAACTGAAAAGTTGTATCAGAATGGATGGTTAATTTCTGCACGTAGAAGCAAAAGGC [TCAGTGGAGTA T23A G34T]  0.0212
5. GAGACCGCAACTGAAAAGTTGTTACAGAATGGATGGTTAATTTCTGCACGTAGAAGCAAAAGGC [ACAGTGGAGTA G34T]  0.0155
6. GAGACCGCAACTGAAAAGTTGTTTCAGAATGGATGGTTAATTTCTGCACGTAGAAGCAAAAGGC [TCAGTGGAGTA G34T]  0.00892
7. GAGACCGCAACTGAAAAGTTGTATCAGAATGGAGGGTTGATTTCTGCACGTAGAAGCAAAAGGC [TCAGTGGAGTG T23A]  0.00892
8. GAGACCGCAACTGAAAAGTTGTTACAGAATGGAGGGTTGATTTCTGCACGTAGAAGCAAAAGGC [ACAGTGGAGTG]  0.00883
9. GAGACCGCAACTGAAAAGTTGTTTCGATGGATGGGTTGAATTTCTGCACGTAGAAGCAAAAGGC [TCGAGATGTGA A28T A29G]  0.00721
10. GAGACCGCAACTGAAAAGTTGTTACGATGGATGGGTTGAATTTCTGCACGTAGAAGCAAAAGGC [ACGAGATGTGA A28T A29G]  0.00619
11. GAGACCGCAACTGAAAAGTTGTTTCAGAATGGAGGGTTGATTTCTGCACGTAGAAGCAAAAGGC [TCAGTGGAGTG]  0.00572
12. GAGACCGCAACTGAAAAGTTGTTACAGAATGGTGGGTTGATTTCTGCACGTAGAAGCAAAAGGC [ACAGTGGTGTG]  0.00543
13. GAGACCGCAACTGAAAAGTTGTTTCGAAAGATGGGTTGAATTTCTGCACGTAGAAGCAAAAGGC [TCGAGATGTGA]  0.0048
14. GAGACCGCAACTGAAAAGTTGTTACAGAATGGGGGTTGAATTTCTGCACGTAGAAGCAAAAGGC [ACAGTGGGTGA]  0.00475
15. GAGACCGCAACTGAAAAGTTGTATCAGAATGGTGGGTTGATTTCTGCACGTAGAAGCAAAAGGC [TCAGTGGTGTG T23A]  0.00413
16. GAGACCGCAACTGAAAAGTTGTATCAGAATGGAGGGTTAATTTCTGCACGTAGAAGCAAAAGGC [TCAGTGGAGTA T23A]  0.00382
17. GAGACCGCAACTGAAAAGTTGTTACAGAATGGAGGGTTAATTTCTGCACGTAGAAGCAAAAGGC [ACAGTGGAGTA]  0.00375
18. GAGACCGCAACTGAAAAGTTGTATCAGAATGGGGGTTGAATTTCTGCACGTAGAAGCAAAAGGC [TCAGTGGGTGA T23A]  0.0036
19. GAGACCGCAACTGAAAAGTTGTTACGAAAGATGGGTTGAATTTCTGCACGTAGAAGCAAAAGGC [ACGAGATGTGA]  0.00357
20. GAGACCGCAACTGAAAAGTTGTATCAGAATGTGGGTTGAATTTCTGCACGTAGAAGCAAAAGGC [TCAGTGTGTGA T23A]  0.00289
21. GAGACCGCAACTGAAAAGTTGTTTCAGAATGGTGGGTTGATTTCTGCACGTAGAAGCAAAAGGC [TCAGTGGTGTG]  0.00278
22. GAGACCGCAACTGAAAAGTTGTTACGAAGGATGGGTTGAATTTCTGCACGTAGAAGCAAAAGGC [ACGAGATGTGA A29G]  0.00268
23. GAGACCGCAACTGAAAAGTTGTTTCAGAATGGTGGTTGAATTTCTGCACGTAGAAGCAAAAGGC [TCAGTGGTTGA]  0.00261
24. GAGACCGCAACTGAAAAGTTGTTACAGAATGGAGGTTGAATTTCTGCACGTAGAAGCAAAAGGC [ACAGTGGATGA]  0.00257
25. GAGACCGCAACTGAAAAGTTGTTTCGAAGGATGGGTTGAATTTCTGCACGTAGAAGCAAAAGGC [TCGAGATGTGA A29G]  0.00245
26. GAGACCGCAACTGAAAAGTTGTTTCGAATGATGGGTTGAATTTCTGCACGTAGAAGCAAAAGGC [TCGAGATGTGA A29T]  0.00243
27. GAGACCGCAACTGAAAAGTTGTTTCAGAATGGGGGTTGAATTTCTGCACGTAGAAGCAAAAGGC [TCAGTGGGTGA]  0.00233
28. GAGACCGCAACTGAAAAGTTGTATCAGAATGGAGGTTGAATTTCTGCACGTAGAAGCAAAAGGC [TCAGTGGATGA T23A]  0.00222
29. GAGACCGCAACTGAAAAGTTGTTTCAGAATGTGGGTTGAATTTCTGCACGTAGAAGCAAAAGGC [TCAGTGTGTGA]  0.00218
30. GAGACCGCAACTGAAAAGTTGTATCAGAATGGTGGTTGAATTTCTGCACGTAGAAGCAAAAGGC [TCAGTGGTTGA T23A]  0.00216
31. GAGACCGCAACTGAAAAGTTGTTTCAGAATGGTGGGTTAATTTCTGCACGTAGAAGCAAAAGGC [TCAGTGGTGTA]  0.00201
32. GAGACCGCAACTGAAAAGTTGTTACAGAATGTGGGTTGAATTTCTGCACGTAGAAGCAAAAGGC [ACAGTGTGTGA]  0.00188
33. GAGACCGCAACTGAAAAGTTGTTTCAGAATGGAGGTTGAATTTCTGCACGTAGAAGCAAAAGGC [TCAGTGGATGA]  0.00185
34. GAGACCGCAACTGAAAAGTTGTATCAGAATGGATGGGTTATTTCTGCACGTAGAAGCAAAAGGC [TCAGTGGAGTT T23A G34T T37G]  0.00183
35. GAGACCGCAACTGAAAAGTTGTTACAGAATGGATGGGTTATTTCTGCACGTAGAAGCAAAAGGC [ACAGTGGAGTT G34T T37G]  0.00159
36. GAGACCGCAACTGAAAAGTTGTATCAGAATGGTGGGTTAATTTCTGCACGTAGAAGCAAAAGGC [TCAGTGGTGTA T23A]  0.00153
37. GAGACCGCAACTGAAAAGTTGTTTCAGAATGGATGGGTTGTTTCTGCACGTAGAAGCAAAAGGC [TCAGTGGAGTT G34T T37G A40G]  0.00151
38. GAGACCGCAACTGAAAAGTTGTTACAGAATGGATGGGTTGTTTCTGCACGTAGAAGCAAAAGGC [ACAGTGGAGTT G34T T37G A40G]  0.00141
39. GAGACCGCAACTGAAAAGTTGTTACAGAATGGTGGTTGAATTTCTGCACGTAGAAGCAAAAGGC [ACAGTGGTTGA]  0.00127
40. GAGACCGCAACTGAAAAGTTGTTTCAGAATGGATGGGTTATTTCTGCACGTAGAAGCAAAAGGC [TCAGTGGAGTT G34T T37G]  0.00084
41. GAGACCGCAACTGAAAAGTTGTTACAGAATGGTGGGTTAATTTCTGCACGTAGAAGCAAAAGGC [ACAGTGGTGTA]  0.000648
42. GAGACCGCAACTGAAAAGTTGTATCAGAATGGATGGGTTGTTTCTGCACGTAGAAGCAAAAGGC [TCAGTGGAGTT T23A G34T T37G A40G]  0.000501
